Results: patent US12018327B2, “Methods and compositions relating to epoxide hydrolase genes” (The Regents of the University of California, priority 2018, dated 2024)

Key:
[1] = molecular target: T1, PPARγ (Homo sapiens, UniProt P37231); details: ref [19]; cited from earlier work
T1 sequence (P37231 1-505): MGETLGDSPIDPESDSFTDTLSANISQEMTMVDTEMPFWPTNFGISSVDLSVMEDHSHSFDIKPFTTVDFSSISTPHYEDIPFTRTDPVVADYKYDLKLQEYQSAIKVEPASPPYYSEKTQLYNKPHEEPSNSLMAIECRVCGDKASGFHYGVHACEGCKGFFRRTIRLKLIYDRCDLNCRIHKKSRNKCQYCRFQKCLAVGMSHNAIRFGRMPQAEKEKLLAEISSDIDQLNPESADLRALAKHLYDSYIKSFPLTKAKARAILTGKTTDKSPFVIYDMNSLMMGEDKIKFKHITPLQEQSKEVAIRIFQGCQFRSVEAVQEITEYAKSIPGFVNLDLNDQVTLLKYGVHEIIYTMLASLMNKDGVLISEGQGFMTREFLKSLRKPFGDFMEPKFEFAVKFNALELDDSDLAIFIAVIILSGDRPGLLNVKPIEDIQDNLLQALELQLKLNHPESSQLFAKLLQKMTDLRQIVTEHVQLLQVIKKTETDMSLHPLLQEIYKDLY

[2] = Colorimetric detection of EH activity, 12,13 EpOME; assay type: biochemical; details: gene expressed in E. coli BL21

In the case of CCCCC/C=C\CC(O)C(O)CCCCCCCC(=O)O (stereo not shown) [9,10 DiHOME], the “action on PPARγ” value [1] is given as “known agonist”.

B1: YP_003971333: Bifidobacterium bifidum PRL2010 hydrolase (epoxide hydrolase) encoded by Gene 3, expressed in E. coli (protein)
chain: MASDDIMTAGAGGATATVRADIKAAFFDIDGTLTSFVTHVIPQSSIDALHELQDRGVKVFICSGRAPSHMTVVLDMMPVHFDGIIALNGQYCFDDHGLLEKESLLPEDIVTITRWLDEHPDVVANYCEKDYVYFNQITDAMRATWRQLGKTAPTVNIDDPHERALKHETFQISPYISFEDEAKLSGMCRNVRGVRWHPDFTDLIPADGGKPEGMKRFMRHYGWTREQTIAFGDGGNDADMLAFAGIGVAMGNATEPAKAAADYITDDVDHDGIMNALKHFNVL
For B1, the “conversion of 12,13 EpOME into 12,13 DiHOME” value (from here on “conversion”) [2] was “could convert”.

B2: YP_003971091: Bifidobacterium bifidum PRL2010 hydrolase (epoxide hydrolase) encoded by Gene 2, expressed in E. coli (protein)
chain: MSQHQVTTRQRRNVVLLDLDGTLTQSDPGIIACATKAFEELSLPVPDDQEMHRFIGPAIIESFRRNHMPDELLDRGVEIYREYYADKAVFDDPNNPGHKIPGRLYNSVYAGIPEQLAALRADGLHLAIATCKPQYQAEPVCEHFHLDTMVDGIYGASTDNSRIDKDQVIRYCFDSIGFDADAGDRALMVGDRWTDVDGAIACGLDCLGCRWGYAEAGELEEHGAYRIIDTVDELAAAVNDYFAK
In the case of B2, the “conversion” value [2] is reported as “could convert”.

B3: NP_814872: Enterococcus faecalis epoxide hydrolase (HAD superfamily hydrolase) encoded by Gene 1, expressed in E. coli (protein)
chain: MSIKLVAIDIDGTLLNSQHKITPRVKEALQKANEQGVRIVLCTGRPLPGVKEQLDELALYGENDFVITYNGSLVQATKDNTIISRYTLSYEDFLEIEMYSRKVGAHLHTIDDSAIYTANRNIGKYTIHEASLVNMPLKYRTVDEMTPEMNIIKMMMIDEPEVLDPAIAKLPLHFTEKYTTVKSTPFYYEIMNKNASKGNALAKLADHLGLNKDEVMAIGDNENDLSMIDYAGIGVAMGNATENVKTIADVHTTSNDEDGVAQIIEKMVLI
For B3, the “conversion” value [2] was “could convert”.
